The data set concerns the molecule itself. The experiment in a line: SDS-PAGE.

B1: porin OmpF from E. coli (wild type) (natural protein, UniProt P02931 23-362, looked up)
chain: AEIYNKDGNKVDLYGKAVGLHYFSKGNGENSYGGNGDMTYARLGFKGETQINSDLTGYGQWEYNFQGNNSEGADAQTGNKTRLAFAGLKYADVGSFDYGRNYGVVYDALGYTDMLPEFGGDTAYSDDFFVGRVGGVATYRNSNFFGLVDGLNFAVQYLGKNERDTARRSNGDGVGGSISYEYEGFGIVGAYGAADRTNLQEAQPLGNGKKAEQWATGLKYDANNIYLAANYGETRNATPITNKFTNTSGFANKTQDVLLVAQYQFDFGLRPSIAYTKSKAKDVEGIGDVDLVNYFEVGATYYFNKNMSTYVDYIINQIDSDNKLGVGSDDTVAVGIVYQF
For the protein B1, the “stoichiometry N” value came out at 3.

Values taken from article PMC2663797 (The journal of physical chemistry. B, 2008).
